OD data for one substance are collected here from US5858646.

Bounds are passed on as bounds.

This assay deals with uncleaved ~95 kD pol gene product of recombinant AcNPV-HIVYKpol (HIV-1 pol polypeptide lacking the first 91 amino acids at the NH2-terminus of the HIV-pol protease) (HIV-1). Kind of assay: ELISA on plates coated with pol, no primary antibody, read at 450 nm. Background: In an ELISA, binding on a coated surface is turned into a signal by an enzyme label.

Regarding “goat anti-human Ig linked to horse radish peroxidase (Tago Diagnostics, cat 2393) (tool reagent)”, the OD was under 0.1 OD.
